Measured values taken from the RNAGym collection of RNA variant scans (doi:10.1073/pnas.2313332121).

B1: TPR t1 (parent)
chain: GACCAAUCUGCCCUCAGAGCUCGAGAACAUCUUCGGAUGCAGAGGAGGCAGGCUUCGGUGGCGCGAUAGCGCCAACGUCCUCAACCUCCAAUGCAUCCCACCACAUGAUGAUGCCUGAAGAGCCUUGGUUUUUUG

Variants of: B1
Test: polymerase ribozyme fitness, log enrichment relative to wild type (log ratio); higher = more active; in vitro selection for triplet polymerase activity
Procedure, shortened: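 Libraries of mutants in each subunit of a heterodimeric triplet polymerase ribozyme were generated by PCR and transcribed. In triplicate, each went through one in vitro selection round: annealing with biotinylated primer, partner subunit and triplets; frozen incubation at −7 °C; gel excision of extended constructs; streptavidin-bead capture; RT-PCR. Fitness, taken from Illumina sequencing of input and output libraries, is the logarithm of a genotype's enrichment over wild-type enrichment, averaged across replicates with inverse-variance weights. The logarithm is base 2, and genotypes needed ≥10 input reads and ≥1 read per output to be kept.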

Variant | polymerase ribozyme fitness (log ratio)
G77U C88G U92A G113C G122A C123G | -4.68
C73U C86A | -0.276
C73G U116C U131A | -1.53
C76A G93C C94A U112G | -4.68
C80G U87A U116G A119U C124G | -6.5
U78G C88U A91U A95U | -3.4
U78C U109A | -5.34
C73G A90G C104U U112C A121U U130C | 1.89
G77A C82A G110A C123A | -2.98
A74C C101G | -2.14
U81G G93A U106A C123U | -3.83
U81C C114A | -2.34
C73G C104A | -1.94
C73U A90C A95C | -1.36
G77A C104A G128A | -3.06
C73A C102U G128C | -3.88
G77U G113A | -1.38
C80U C101U A118G A121U U131A | 0.732
U78C U112A | 1.12
U78A G122A | -1.42
U81G C94G G117U | -6.8
A74U C114G C124A U125C | -1.43
C79A U112C G127A | -1.43
C73G U129G | -2.27

Variant | polymerase ribozyme fitness (log ratio)
A74U U125A U131G | -0.852
A74U A121U C124A | 1.47
U78C C88G | -0.636
U78C G117C | -3.6
U78C G117A | -1.35
G77U U131A | -0.157
G77U U78C A95U C123G | 0.706
C73A C88G A111U U129G | -5.91
A75G G113C | -2.4
G77A C88G | -0.754
U78A C79A A95C U133A | -4.23
U78G G107U | -5.32
C79G C89A | -5.03
G77C C114A C124U | -2.41
C79U G113U U116A | -5.49
C76G C82G G128U | -3.7
G77U C115G A118C | -5.42
C82A G110U C123U | -2.47
C73U A74G C99U | -3.36
G77U C114G A121C | -1.7
A74U G93U G117C | -5.37
U78C C88U A121C | 1.67
U78G U96A C124G | 1.43
C80U C102A U106A U112A | -4.1

Variant | polymerase ribozyme fitness (log ratio)
C79U G122U | 0.0245
C73G G113A | -1.29
G77U C115G G128C | -2.98
C73U G113A | -0.0568
A74G G77U C123U | 0.945
C79G A83G C89G | -3.62
C79A U106C | -0.96
C79A U129A | -2.44
U78C A83G U106C | -1.19
U78C C85G | -1.82
A75G C88G | -1.04
C73U U78A C88G G120U | -1.15
C73G C85U G93U A95G C123A | -3.28
C79A A95U | -1.9
U78G C80U G93U | -1.61
U78G C88U U92G G120C U134G | -1.71
C73U U81A | -3.27
C76A G117A C124A | -0.549
G77C C88A | -0.0409
C73G G127A | -1.82
C76G A90C C101U | -1
C80A U109G | -5.76
C80A U109A | -6.3
C73A C86U C124A | 1.85

Variant | polymerase ribozyme fitness (log ratio)
U78C C94U | -0.58
U78G G113A C124G | -0.667
G77U A91U U132A | -2.14
A74C C82A A105U | -2.29
C73U U132C | -0.238
U78A C89U C104U | -1.1
U81A A90U | -2.41
C79A C101U | -1.4
C79A G113C | -3.64
G77U C124G | 1.96
C76U U112A U116G | -2.03
G77U A119G | -0.758
G77U A100C A118U U129C | -1.45
C73U C104U C115A | 0.332
G77C C115A | 0.325
C76U A105C | -2.5
C79G U96A | -2.96
U81G G120A | -3.83
G77U C89U A91U U116C G120C G135A | -2.85
C73U C97U C102A U130C | -2.5
G77A U96G | -1.12
C76U G120A | 1.69
U81G C124A G128C U130G | -2.26
A75G C114A | -2.36

Variant | polymerase ribozyme fitness (log ratio)
C73G C86U | -1.29
C73G C86G | -2.52
C73U G117A G128C | -5.18
U78C U130C | 0.0983
A75G C82U A121G C124G | 1.16
G77C C114A G127C | -2.76
C80A C85U C86A U87C | -7.24
C80A A84U | -3.74
C73G C101U | -0.446
C73G A83U C88G U130A | -3.2
U78A C115G U116G | -3.11
C79G C114A | -0.594
A74U U87A | -0.842
C73A C104U U130G U132C | 1.03
C82G C88U A103C G117C | -5.02
A74U U96C | -0.884
U78C C80G A121G | -2.75
C79G C82U U130A | -2.13
U78G A84U C115U A121C | -3.92
C76U U81A | -0.892
C73U U125A | -0.171
C80A A84G C98U | -6.69
C80G U132C | -4.66
C73A U78C C94U | -0.492

Variant | polymerase ribozyme fitness (log ratio)
A75U C76G C88A A90U C114U | -2.85
C73U U129G | -0.782
C73U U129A | -1.05
C79U C124G | 1.81
C79U C124A | 1.12
A74C C101U U132C | -0.834
A74U U126G | -1.89
U78C G113A | -1.36
C73U U96A | -1.16
C80U C85A | -2.89
C73U C79U C104U | -0.0392
U78G G113A | -1.05
U78G G113U | -3.89
C76U G113U | -2.36
C79G U81A C98U C102G G107C | -7.84
A74G C102G U132C | -5.92
G77A A91U | -1.6
U78A U112C G120A | -0.475
U78G U109A | -6.21
C80U A84U | -1.02
A75U C97A | -5.53
G77C C94U | -0.725
C80A U116G G120C C123A | -3.59
C73G C94A C102U | -3.82

Variant | polymerase ribozyme fitness (log ratio)
U78G G110U G127U | -2.47
C82A C123U | 0.707
G77A A83U U87C C104U A105C | -5.02
U78C U87C C115U | -0.381
U78A G117A | -1.76
U81G U130A | -3.23
U81C G127C | -1.22
A74U C88G U112G U132G G135A | -0.922
C73G A121C | 1.42
C73U U126A | -1.7
C76G G93A C104U U133A | -0.348
C73U C101G G120U | -0.999
U78C G93U C124A | 0.632
G77U U81G | -3.24
C73G G120A U129G | -1.1
C73U C115U | -0.667
G77U C101G G127A | -2.44
A74U G93A | -0.498
U78G G93A | -0.0742
C79A A95G C101U C123U | -4.17
U78A U130G | -0.269
C76U C94A U106C U112C | 0.627
U78C A105C A121C | -0.547
